# Test results as given in US20260242478A1 (published 2026).
# Where no end group is shown, it is not given here.
# B1: Phage-3545 (peptide)
# peptide: VVKACIPEWMCSGF
# notes: Tested as crude clonal phage supernatant
# B2: Phage-3538 (peptide)
# peptide: IARTCVPAWMCSGF
# notes: as for B1
# B3: Phage-3534 (peptide)
# peptide: ESVYCIPQWMCSGL
# notes: as for B1
# B4: Phage-3546 (peptide)
# peptide: DARACVPEWMCYGF
# notes: as for B1
# B5: Phage-3540 (peptide)
# peptide: VKPMCVPEWMCSGL
# notes: as for B1
# B6: Phage-3535 (peptide)
# peptide: LNAMCVPAWMCTGF
# notes: as for B1
# B7: Phage-3542 (peptide)
# peptide: LYVKCSPEWMCIGF
# notes: as for B1
# B8: Phage-3537 (peptide)
# peptide: FEVACIPQWMCDGF
# notes: as for B1
# B9: Phage-3539 (peptide)
# peptide: DVRMCVPEWMCSGF
# notes: as for B1
# B10: Phage-3533 (peptide)
# peptide: VERVCVPQWMCSGF
# notes: as for B1
# B11: Phage-3541 (peptide)
# peptide: ENLICKPAWMCVGF
# notes: as for B1
# B12: Phage-3543 (peptide)
# peptide: VTPQCVPMWMCTGF
# notes: as for B1
# B13: Phage-3544 (peptide)
# peptide: FLQACKPPWMCTGF
# notes: as for B1
# B14: Phage-3536 (peptide)
# peptide: LEMACRPMWMCQGL
# notes: as for B1
# B15: Phage-3495 (peptide)
# peptide: SMAWCVPNWMCTGF
# modifications: cysteine pairing not given here; also: fused to pIII of bacteriophage, pIII and linker not given here
# notes: Peptide-180 library clone, tested as clonal phage supernatant with the peptide fused to pIII of the bacteriophage
# B16: Phage-3497 (peptide)
# peptide: VDRICKPDWMCAGF
# modifications: cysteine pairing not given here; also: fused to pIII of bacteriophage, pIII and linker not given here
# notes: as for B15
# B17: Phage-3503 (peptide)
# peptide: EAPACVPVWMCNGF
# modifications: cysteine pairing not given here; also: fused to pIII of bacteriophage, pIII and linker not given here
# notes: as for B15
# B18: Phage-3499 (peptide)
# peptide: THPLCVPTWMCSGF
# modifications: cysteine pairing not given here; also: fused to pIII of bacteriophage, pIII and linker not given here
# notes: as for B15
# B19: Phage-3494 (peptide)
# peptide: DYMMCSPDWMCKGF
# modifications: cysteine pairing not given here; also: fused to pIII of bacteriophage, pIII and linker not given here
# notes: as for B15
# B20: Phage-3498 (peptide)
# peptide: TVHYCTPSWMCTGF
# modifications: cysteine pairing not given here; also: fused to pIII of bacteriophage, pIII and linker not given here
# notes: as for B15
# B21: Phage-3496 (peptide)
# peptide: QDMVCRPAWMCTGF
# modifications: cysteine pairing not given here; also: fused to pIII of bacteriophage, pIII and linker not given here
# notes: as for B15
# B22: Phage-3501 (peptide)
# peptide: PLRYCEPAWMCFGF
# modifications: cysteine pairing not given here; also: fused to pIII of bacteriophage, pIII and linker not given here
# notes: as for B15
# B23: Phage-3500 (peptide)
# peptide: YDHFCVPRWMCEGL
# modifications: cysteine pairing not given here; also: fused to pIII of bacteriophage, pIII and linker not given here
# notes: as for B15
# B24: Phage-3502 (peptide)
# peptide: WLYSCIPQWMCTGF
# modifications: cysteine pairing not given here; also: fused to pIII of bacteriophage, pIII and linker not given here
# notes: as for B15
# Target: T1, PSMA Fab (SEQ ID NOs: 19, 20)
# T1 construct: also called Anti-PSMA Fab; 006 PSMA Fab
# Experiment: clonal phage ELISA, biotinylated PSMA Fab on neutravidin plate, anti-M13 HRP detection;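 further: crude clonal phage supernatants added to wells pretreated with blocking buffer either with or without PSMA antigen, bound phage read after washing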
# Method: (§1) Clonal phage were harvested as crude supernatants and screened via standard ELISAs. […] Prior to the addition of clonal phage. wells were incubated with blocking buffer and PSMA antigen or blocking buffer alone. Without washing or aspirating, clonal phage supernatants were then added to the wells and incubated for a short time. Wells were then washed followed by detection of bound phage using a horse radish conjugated anti-M13 antibody.
row,Binder,"Phage binding ELISA signal, Anti-PSMA Fab"
1,B1,1.65
2,B2,1.65
3,B3,1.66
4,B4,1.65
5,B5,1.65
6,B6,1.66
7,B7,1.65
8,B8,1.66
9,B9,1.65
10,B10,1.66
11,B11,1.65
12,B12,1.65
13,B13,1.65
14,B14,1.66

# Target: T1, PSMA Fab (SEQ ID NOs: 19, 20)
# Experiment: clonal phage ELISA on captured PSMA Fab, wells pre-incubated with PSMA antigen as competitor
# Method: as §1
row,Binder,"Phage binding ELISA signal, Anti-PSMA Fab with PSMA antigen"
1,B1,0.125
2,B2,0.102
3,B3,0.0698
4,B4,0.0805
5,B5,0.0907
6,B6,0.0634
7,B7,0.0709
8,B8,0.118
9,B9,0.0753
10,B10,0.1
11,B11,0.0738
12,B12,0.105
13,B13,0.146
14,B14,0.0725

# Target: T2, PSMA Fab (biotinylated (site not stated))
# T2 construct: also called Anti-PSMA Fab; 006 PSMA Fab
# Experiment: clonal phage ELISA on captured PSMA Fab; competitor: PSMA antigen at saturating concentration
row,Binder,phage binding ELISA signal
1,AEPVCVPDWMCFGF [Phage-3507],0.103
2,VGHMCKPVWMCAGL [Phage-3511],0.101
3,TEQICKPAWMCTGL [Phage-3512],0.0536
4,SVAYCVPTWMCDGL [Phage-3516],0.0618
5,VDHRCVPSWMCYGL [Phage-3508],0.0745
6,LTQMCKPLWMCAGF [Phage-3506],0.0786
7,ADIYCKPVWMCTGF [Phage-3510],0.0909
8,NIIHCVPPWMCDGF [Phage-3504],0.0795
9,PELACIPEWMCIGF [Phage-3515],0.0803
10,MVPRCEPEWMCVGF [Phage-3517],0.0705
11,EYMRCEPSWMCYGF [Phage-3509],0.0584
12,IEIRCKPEWMCTSF [Phage-3505],0.0708
13,VVKHCVPTWMCAGF [Phage-3514],0.0813
14,SVTTCIPPWMCTGF [Phage-3513],0.0979

# Target: T3, Anti-PSMA Fab (biotinylated (site not stated))
# T3 construct: also called 006 PSMA Fab
# Experiment: clonal phage ELISA on biotinylated PSMA Fab captured on neutravidin plate, anti-M13 HRP detection
row,Binder,"Phage binding ELISA signal, Anti-PSMA Fab"
1,TERVCVPDWMCAGF (Clonal phage of the Peptide-180 library) [Phage-3547],1.65

# Target: T4, Anti-PSMA Fab
# T4 construct: Biotinylated and captured on neutravidin coated plates in the phage ELISA; also called 006 PSMA Fab
# Experiment: clonal phage ELISA on captured PSMA Fab pre-incubated with PSMA antigen as competitor, anti-M13 HRP detection;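 further: crude clonal phage supernatants tested by ELISA, wells first treated with blocking buffer plus PSMA antigen, bound phage read out via HRP-linked anti-M13 antibody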
# Method: as §1
row,Binder,"Phage binding ELISA signal, Anti-PSMA Fab with PSMA antigen"
1,B15,0.0897
2,B16,0.091
3,B17,0.0778
4,B18,0.0862
5,B19,0.0722
6,B20,0.0866
7,B21,0.0848
8,B22,0.0601
9,B23,0.0592
10,B24,0.127

# Target: T2, PSMA Fab
# Experiment: clonal phage ELISA on biotinylated PSMA Fab captured on neutravidin plate, anti-M13 HRP detection; no PSMA antigen
# Method: as §1
row,Binder,phage binding ELISA signal
1,AEPVCVPDWMCFGF [Phage-3507],1.69
2,VGHMCKPVWMCAGL [Phage-3511],1.69
3,TEQICKPAWMCTGL [Phage-3512],1.69
4,SVAYCVPTWMCDGL [Phage-3516],1.69
5,VDHRCVPSWMCYGL [Phage-3508],1.69
6,LTQMCKPLWMCAGF [Phage-3506],1.69
7,ADIYCKPVWMCTGF [Phage-3510],1.69
8,NIIHCVPPWMCDGF [Phage-3504],1.7
9,PELACIPEWMCIGF [Phage-3515],1.69
10,MVPRCEPEWMCVGF [Phage-3517],1.69
11,EYMRCEPSWMCYGF [Phage-3509],1.69
12,IEIRCKPEWMCTSF [Phage-3505],1.7
13,VVKHCVPTWMCAGF [Phage-3514],1.69
14,SVTTCIPPWMCTGF [Phage-3513],1.69

# Target: T3, Anti-PSMA Fab
# Experiment: clonal phage ELISA on captured PSMA Fab, wells pre-incubated with PSMA antigen as competitor, anti-M13 HRP detection;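 further: crude clonal phage supernatants added, with no intervening wash, to wells preincubated with PSMA antigen in blocking buffer, incubated briefly, then washed before detecting bound phage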
# Method: as §1
row,Binder,"Phage binding ELISA signal, Anti-PSMA Fab with PSMA antigen"
1,TERVCVPDWMCAGF (Clonal phage of the Peptide-180 library) [Phage-3547],0.0944

# Target: T4, Anti-PSMA Fab
# Experiment: clonal phage ELISA on biotinylated PSMA Fab captured on neutravidin plate, anti-M13 HRP detection, blocking buffer alone
# Method: as §1
row,Binder,"Phage binding ELISA signal, Anti-PSMA Fab"
1,B15,1.7
2,B16,1.7
3,B17,1.7
4,B18,1.7
5,B19,1.7
6,B20,1.7
7,B21,1.7
8,B22,1.7
9,B23,1.7
10,B24,1.7
